Data: the supplement of paper PMC10567573
± gives the standard deviation.

Assay: protein stability index of a GFP-peptide fusion (GPS, HEK-293T) (PSI 1-6); higher = more stable
[1] = treatment: DMSO, c terminus: a fixed tail appended
[2] = treatment: MLN4924 1 uM, 8 h, c terminus: a fixed tail appended
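Further: 24-mer peptide tiles fused after GFP, lentivirally expressed, FACS-sorted into six equal bins by GFP/DsRed ratio, decoded by Illumina sequencing, PSI is the read-weighted mean bin number.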

| Sequence | protein stability index [1] | protein stability index [2] | protein stability index (treatment: DMSO, c terminus: native) | protein stability index (treatment: MLN4924 1 uM, 8 h, c terminus: native) |
| --- | --- | --- | --- | --- |
| TASTAPPVPATAPSPAPAVAAAAA [SNAP91] | 5.09 ± 0.19 | 5.08 ± 0.12 | – | – |
| TEAESEQEGSSGMELSWGQSPGQP [TEX19] | 5.43 ± 0.24 | 5.26 ± 0.25 | – | – |
| TEDELRVRHLEEENRGIVVLGINR [AUH] | 4.29 ± 0.15 | 4.33 ± 0.39 | – | – |
| TERDEIEDVKCQEDQKLQVLLTQI [TRIM15] | 4.34 ± 0.2 | 4.54 ± 0.12 | – | – |
| TFAMVKGYFFPTSARDCKFTGNFF [DHCR7] | 2.56 ± 0.39 | 2.71 ± 0.43 | – | – |
| TFLKAFPLMGETQERERVLTHFSR [PSD2] | 2.45 ± 0.21 | 2.63 ± 0.39 | – | – |
| TFLSRILTGLNYEAPKYHIPYWVA [NSDHL] | 2.77 ± 0.67 | 3 ± 0.63 | – | – |
| TGQPLPQSIQQAMRYLRNHCLDQV [DLC1] | 2.36 ± 0.093 | 2.4 ± 0.22 | – | – |
| THFTFKDLHFKMFDVGGQRSERKK [GNAI1] | 2.83 ± 0.33 | 2.93 ± 0.15 | – | – |
| TIVKARDKLYHPECFMCSDCGLNL [PDLIM4] | 2.19 ± 0.44 | 2.42 ± 0.19 | – | – |
| TKEGGMLAYYEVCSWKGATKQRIQ [CHIT1] | 2.26 ± 0.53 | 2.91 ± 0.65 | – | – |
| TKKRHTPRGHAESTSNRQPRKQG [SMOC2] | – | – | 2.59 ± 0.62 | 3.3 ± 0.49 |
| TKLLNDEDQVVVNKAAVMVHQLSK [CTNNB1] | 3.6 ± 0.19 | 3.57 ± 0.4 | – | – |
| TLLNPRMIVDVTPYMNPSPFTVSP [CLCN6] | 2.32 ± 0.079 | 2.25 ± 0.081 | – | – |
| TLTWDSGNPEPVSYYIIQHKPKNS [PTPRD] | 2.69 ± 0.12 | 3.05 ± 0.41 | – | – |
| TMAAKKNRQSSDKQNGRVAKVKGH [C18orf25] | 4.53 ± 0.25 | 4.58 ± 0.29 | – | – |
| TNLPIFKLKESTVRRRYSDFEWLR [SNX3] | 2.62 ± 0.3 | 2.53 ± 0.36 | – | – |
| TPAPMSSAWKTVACGGTRDQLFMQ [MYBL2] | 2.75 ± 0.17 | 2.69 ± 0.3 | – | – |
| TPGIDLTRVLAEMREQYEAMAERN [KRT13] | 4.13 ± 0.49 | 4.4 ± 0.32 | – | – |
| TPINQNVSLHQASLGGCSQDFLLF [NFE2L1] | 1.99 ± 0.55 | 2.6 ± 0.58 | – | – |
| TPVMEGYVEVKEGKTWKQICDKHW [LOXL2] | 3.28 ± 0.32 | 3.51 ± 0.37 | – | – |
| TQKFTDMVATANNRQTFVNSAIRF [CHIT1] | 2.85 ± 0.32 | 3.17 ± 0.33 | – | – |
| TQVLEDSEDSFCRRHPGLGKAFPS [TRAF3IP2] | 4.17 ± 0.35 | 4.12 ± 0.39 | – | – |

| Sequence | protein stability index [1] | protein stability index [2] | protein stability index (treatment: DMSO, c terminus: native) | protein stability index (treatment: MLN4924 1 uM, 8 h, c terminus: native) |
| --- | --- | --- | --- | --- |
| TRDYAPPSRGHAYRDYGHSRRDES [RBMY1A1] | 4.54 ± 0.4 | 4.61 ± 0.42 | – | – |
| TRLAFELFAEEQAEGPNRLLYKDG [LPCAT4] | 3.85 ± 0.19 | 4.02 ± 0.2 | – | – |
| TRNSPRGCRLPSISSTTCGRQLEK [SPATS1] | 3.81 ± 0.26 | 4 ± 0.18 | – | – |
| TRRSSYEDSSLPSINALLQAEVLS [HNF4A] | 3.13 ± 0.22 | 3.15 ± 0.31 | – | – |
| TSASFGEESTPGQTNSETAVVALT [HDAC6] | 4.714 ± 0.027 | 5.05 ± 0.19 | – | – |
| TSEESRPRLSQLSVTDVTTSSLRL [TNXB] | 4.18 ± 0.29 | 4.24 ± 0.26 | – | – |
| TSIVQAAAGGVPGGGSNNGKTPVC [PDLIM7] | 4.63 ± 0.17 | 4.81 ± 0.14 | – | – |
| TSLFMTPLDVVKVRLQSQRPSMAS [SLC25A39] | 2.69 ± 0.34 | 3.02 ± 0.19 | – | – |
| TSLLDLISIPITGDTLRTFSLVLV [DYNC2LI1] | 2.76 ± 0.89 | 2.51 ± 0.57 | – | – |
| TSWSQHCPWEPQKQPPWEFLQVLE [SPAG8] | 2.31 ± 0.13 | 2.55 ± 0.29 | – | – |
| TTIKRKREDDKLVVECVMKGVTST [FABP4] | 3.9 ± 0.52 | 3.9 ± 0.19 | – | – |
| TTLLKCYLHTNVALVAPLLRLENN [VPS39] | 2.68 ± 0.54 | 2.77 ± 0.57 | – | – |
| TTPIEEVKGLFKSENCPKVISCEF [LARP4] | 2.9 ± 0.2 | 2.82 ± 0.36 | – | – |
| TTQDLFAINRDTAFPGASHESSGN [RHOBTB3] | 4.57 ± 0.51 | 4.87 ± 0.15 | – | – |
| TVAIGAESEVYSWGKGARGRLGRR [NEK8] | 4.08 ± 0.16 | 4.14 ± 0.15 | – | – |
| TVGLLWFAHHSLFLHVRKATRAMG [TMEM175] | 2.46 ± 0.15 | 2.42 ± 0.39 | – | – |
| TVLLVLEDEDPEEMPKSSDFLIHP [PCDHGC5] | 2.75 ± 0.15 | 2.91 ± 0.21 | – | – |
| TVMMWPLAVYHRLWDRAYVRLKPA [RETREG3] | 2.34 ± 0.23 | 2.27 ± 0.15 | – | – |
| TVNALEIELQAQHSMRNSLESTLA [KRT36] | 3.38 ± 0.31 | 3.38 ± 0.29 | – | – |
| TWLKGKFTELRLLLDEEEALAKKF [TRIM14] | 2.23 ± 0.42 | 2.34 ± 0.23 | – | – |
| VAQCLRDLVAMQWADAAGEAVPEG [ZSWIM9] | 2.92 ± 0.33 | 3.06 ± 0.36 | – | – |
| VAVDYCASENHGCEHECVNADGSY [MATN2] | 5.08 ± 0.13 | 5.07 ± 0.054 | – | – |
| VCRDSVSRKGELTPLPETGYWRVR [TRIM39] | 2.55 ± 0.1 | 2.71 ± 0.57 | – | – |

| Sequence | protein stability index [1] | protein stability index [2] | protein stability index (treatment: DMSO, c terminus: native) | protein stability index (treatment: MLN4924 1 uM, 8 h, c terminus: native) |
| --- | --- | --- | --- | --- |
| VCRIGDWLQERYEIVGNLGEGTFG [CLK3] | 2.22 ± 0.42 | 2.37 ± 0.33 | – | – |
| VCSDYASGYHYGVWSCEGCKAFFK [ESR2] | 2.33 ± 0.35 | 2.56 ± 0.34 | – | – |
| VCVIAIGVVQALIVGYAFHFPHLL [TMEM175] | 3.11 ± 0.62 | 3.09 ± 0.4 | – | – |
| VDSFQIILDSLLFFYDCSNNPISE [TENT5C] | 3.03 ± 0.14 | 3.14 ± 0.41 | – | – |
| VEEQLAQLRCEMEQQNQEYKILLD [KRT17] | 4.75 ± 0.29 | 4.78 ± 0.22 | – | – |
| VFDLPESLGGIRACTLTVFPPEET [KLHL13] | 3.33 ± 0.41 | 3.39 ± 0.37 | – | – |
| VFDLRMMVANILNNEAFMNQEITK [RHOBTB2] | 2.72 ± 0.47 | 2.43 ± 0.46 | – | – |
| VFQHHQYLSPLERKRLAREMQLSE [VENTX] | 2.81 ± 0.26 | 3.08 ± 0.37 | – | – |
| VGHNHTYNMAPSALDSADLPPPSA [NFE2L1] | 4.61 ± 0.16 | 4.43 ± 0.36 | – | – |
| VGKGEILESLQDGAAESPYAYSNG [RAB40C] | 4.88 ± 0.24 | 4.79 ± 0.2 | – | – |
| VHEVLQAVDAGDPAVEACENRRKV [TCF25] | 5.3 ± 0.22 | 5.35 ± 0.097 | – | – |
| VIDGRNVTVTDVDIVFSKIKGKSC [TPPP] | 2.6 ± 0.3 | 2.75 ± 0.41 | – | – |
| VIMQVPERIVVAGNNEDVSFSRPA [MFF] | 3.4 ± 0.3 | 3.47 ± 0.6 | – | – |
| VIVMTTRFEEGGRRKCGQYWPLEK [PTPN9] | 2.12 ± 0.75 | 2.47 ± 0.57 | – | – |
| VKESGERKVTDSISKSLELCNEIS [DLC1] | 4.52 ± 0.11 | 4.82 ± 0.21 | – | – |
| VKIESVKLDFKEKAQAKVGSLDNA [MAP2] | 3.5 ± 0.24 | 3.52 ± 0.24 | – | – |
| VKKYKSMKLEKEEFVTLKAIALAN [ESRRG] | 2.46 ± 0.32 | 2.66 ± 0.2 | – | – |
| VKMDSSIQPGPFRAVLKYLYTGEL [RHOBTB2] | 2.32 ± 0.96 | 2.02 ± 0.45 | – | – |
| VKQKISPYFKSNDVVCKNQDELRN [FAN1] | 3.84 ± 0.24 | 3.64 ± 0.44 | – | – |
| VLADLHSAEQLKAQAIDFINRCSV [SPOPL] | 2.15 ± 0.14 | 2.29 ± 0.39 | – | – |
| VLAIIAREGDCAPEEKIWEELSVL [MAGEA3] | 2.62 ± 0.48 | 2.42 ± 0.4 | – | – |
| VLCEAAFPKKLAFAYLEDLHSEFD [SEC22B] | 2.14 ± 0.28 | 2.31 ± 0.12 | – | – |
| VLFNEKIREQIKKYRRHFLRFCHN [EIF5] | 2.82 ± 0.29 | 3 ± 0.65 | – | – |

| Sequence | protein stability index [1] | protein stability index [2] | protein stability index (treatment: DMSO, c terminus: native) | protein stability index (treatment: MLN4924 1 uM, 8 h, c terminus: native) |
| --- | --- | --- | --- | --- |
| VLNTQGQKTSGQHMIQGAGSLEKA [DLC1] | 4.19 ± 0.42 | 4.23 ± 0.33 | – | – |
| VLREDQIPRGFPTIDMGPQLKVVE [PTPRD] | 3.898 ± 0.018 | 3.34 ± 1.1 | – | – |
| VLRLCCKKLKIFAMPMQDIKMILK [PRAME] | 2.81 ± 0.38 | 2.73 ± 0.52 | – | – |
| VMRTKSSEKAANDDHSVRVAREDV [CPXM2] | 5.08 ± 0.54 | 5.16 ± 0.35 | – | – |
| VNNYTNSFGGEWSAPDTMKRYSMY [TRIM29] | 2.32 ± 0.19 | 2.62 ± 0.3 | – | – |
| VNSQFTAAVFKETFKSLSHIDPDV [ALG2] | 2.86 ± 0.47 | 3.05 ± 0.33 | – | – |
| VPDVKEMEKSSFTEYIESPDVENE [TAF7L] | 5.59 ± 0.17 | 5.61 ± 0.23 | – | – |
| VPLQLSAHWQCGATLTQVSVEYGY [FCHO1] | 2.76 ± 0.76 | 2.6 ± 0.67 | – | – |
| VPQAPRRLRASFSRKPSLKGNRED [PLEKHN1] | 4.71 ± 0.097 | 4.83 ± 0.13 | – | – |
| VQAIFSGDPEEIRMLIHKTEDVNT [ANKRD44] | 3.76 ± 0.11 | 3.58 ± 0.11 | – | – |
| VRILLEHYYKENDPSVRLKIASLL [INTS4] | 2.09 ± 0.33 | 2.41 ± 0.4 | – | – |
| VRNLQSEVEGVKNIMTQNVERILA [VAMP8] | 3.01 ± 0.41 | 2.96 ± 0.51 | – | – |
| VSAIIWEGNECKKMDMSVLEISGI [PHTF1] | 2.11 ± 0.58 | 2.41 ± 0.83 | – | – |
| VSASRDKTLRVWDLKDDGNMMKVL [WSB1] | 3.2 ± 0.09 | 3.35 ± 0.25 | – | – |
| VSLLENNIYVHDLLTFQQITTVSK [VPS39] | 2.97 ± 0.35 | 2.41 ± 0.49 | – | – |
| VSSVFLLTLSIAFICCAQVKVSHL [PHTF1] | 3.57 ± 0.43 | 3.02 ± 0.58 | – | – |
| VSVIQSIPIFNETGRFSFTLPYPV [HACD3] | 2.91 ± 0.72 | 2.68 ± 0.76 | – | – |
| VSYRGAWWYRNCHYANLNGLYGST [TNXB] | 2.49 ± 0.46 | 2.26 ± 0.86 | – | – |
| VTKVTAVDADAGHNAWLSYSLLPQ [PCDHGC5] | 2.41 ± 0.39 | 2.29 ± 0.21 | – | – |
| VTSFPDADAFHHQVHDDDLLSSSE [EMD] | 5.38 ± 0.33 | 5.33 ± 0.21 | – | – |
